Columns and labels:
[1] = molecular target: prostate specific membrane antigen (PSMA), full-length human (human) (UniProt Q04609); assay: cell-based or functional assay
[2] = molecular target: prostate specific membrane antigen (PSMA), full-length human (human) (UniProt Q04609); assay: fraction of radiolabeled mAb bound to excess cells, PSMA-3T3
[3] = molecular target: prostate specific membrane antigen (PSMA), full-length human (human) (UniProt Q04609); assay: fraction of radiolabeled mAb bound to excess cells, PSMA-3T3 (bracket: 3T3 control)
[4] = molecular target: prostate specific membrane antigen (PSMA), full-length human (human) (UniProt Q04609); assay: fraction of radiolabeled mAb bound to excess cells, average of runs

Sequence of prostate specific membrane antigen (PSMA), full-length human (human) (Q04609 whole entry): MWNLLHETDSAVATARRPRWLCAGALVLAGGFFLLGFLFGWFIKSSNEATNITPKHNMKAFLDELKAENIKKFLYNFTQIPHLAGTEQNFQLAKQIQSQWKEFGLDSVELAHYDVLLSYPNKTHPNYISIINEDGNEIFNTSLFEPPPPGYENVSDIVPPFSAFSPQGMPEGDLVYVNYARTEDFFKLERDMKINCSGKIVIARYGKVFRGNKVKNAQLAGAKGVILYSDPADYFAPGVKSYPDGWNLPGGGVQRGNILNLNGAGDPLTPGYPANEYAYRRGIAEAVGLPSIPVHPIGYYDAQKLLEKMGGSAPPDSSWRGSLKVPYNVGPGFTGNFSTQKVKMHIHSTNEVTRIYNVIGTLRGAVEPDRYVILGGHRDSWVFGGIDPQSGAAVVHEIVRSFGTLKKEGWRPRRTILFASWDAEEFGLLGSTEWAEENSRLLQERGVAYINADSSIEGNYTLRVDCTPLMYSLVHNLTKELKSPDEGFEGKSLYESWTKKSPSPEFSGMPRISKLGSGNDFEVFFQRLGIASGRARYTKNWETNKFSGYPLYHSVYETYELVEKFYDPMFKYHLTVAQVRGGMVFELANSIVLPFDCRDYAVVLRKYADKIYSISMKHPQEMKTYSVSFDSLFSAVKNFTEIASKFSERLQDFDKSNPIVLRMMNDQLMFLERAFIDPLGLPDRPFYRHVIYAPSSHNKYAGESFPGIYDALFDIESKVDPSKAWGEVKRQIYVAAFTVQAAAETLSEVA

## mJ591 (antibody)
[1]
  immunotoxin cytotoxicity (saporin-linked secondary antibody) on C4-2 cells, LD50: 88.2 pM
  immunotoxin cytotoxicity (saporin-linked secondary antibody) on PSMA-3T3 cells, LD50: 89 pM

## ^111In mJ591 (In-111 labeled CHX-A''-DTPA mJ591) (antibody)
[2]
  Immunoreactivity (%): 58.5%
[3]
  Immunoreactivity (%): 54.9%
[4]
  Immunoreactivity (%), average: 56.7%
